Data taken from article PMC3093366, “A Component of the Xanthomonadaceae Type IV Secretion System Combines a VirB7 Motif with a N0 Domain Found in Outer Membrane Transport Proteins” (PLoS Pathogens, 2011).

What was measured:
[1] = target: VirB7_(XAC2622_24–139) (Xanthomonas citri subsp. citri strain 306); experiment: NMR 15N relaxation (rotational correlation time); 15N T1 and T2 of 15N-VirB7_(XAC2622_24–139) at 800 µM, 40°C, 600 MHz
VirB9_(XAC2620_34–255) = target: T1, VirB9_(XAC2620_34–255) (Xanthomonas citri subsp. citri strain …, UniProt A0AAI8ESY0 34-255); experiment: other fluorescence titration; intrinsic fluorescence; 0.1 µM aliquots of VirB7_(XAC2622_24–139_His) added to 1 µM VirB9_(XAC2620_34–255) up to 2.2 µM; 5 mM sodium acetate pH 5.0, 25°C, excitation 280 nm, emission 334–342 nm; conditions: both partners purified
T1 construct: also called full length VirB9; full-length VirB9_(XAC2620) minus the first 33 residues
T1 sequence: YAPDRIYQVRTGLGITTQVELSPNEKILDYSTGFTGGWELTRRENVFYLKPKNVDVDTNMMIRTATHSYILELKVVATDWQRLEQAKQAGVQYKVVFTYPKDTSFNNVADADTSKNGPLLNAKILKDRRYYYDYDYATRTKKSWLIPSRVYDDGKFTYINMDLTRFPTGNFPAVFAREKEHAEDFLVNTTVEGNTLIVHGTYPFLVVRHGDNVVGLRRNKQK

VirB7_(XAC2622_51–134) = target: T2, VirB7_(XAC2622_51–134) (Xanthomonas citri subsp. citri strain …, UniProt A0AAI7ZGD2 51-134, 15N isotope labelled in the NMR titration); experiment: NMR titration; 15N-labeled VirB7_(XAC2622_51–134) (200 µM) titrated with unlabeled VirB7_(XAC2622_38–52) peptide (0 to 740 µM); 15N-HSQC; conditions: both partners purified
T2 construct: also called VirB7_(XAC2622) globular domain; N0 domain; source: E. coli BL21(DE3)RP or BL21(DE3)Star, purified (Q-sepharose, Superdex 75)
T2 sequence: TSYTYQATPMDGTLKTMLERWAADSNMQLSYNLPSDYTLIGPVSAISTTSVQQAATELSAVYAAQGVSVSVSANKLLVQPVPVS

Work on “VirB7_(XAC2622_24–139) (from UniProt A0AAI7ZGD2 24-139) (domain or fragment)” yielded a stoichiometry N [1] of 2.

B1: VirB7_(XAC2622_24–139_His) (domain or fragment)
chain: TKPAPDFGGRWKHVNHFDEAPTEIPLYTSYTYQATPMDGTLKTMLERWAADSNMQLSYNLPSDYTLIGPVSAISTTSVQQAATELSAVYAAQGVSVSVSANKLLVQPVPVSSGAKL
notes: Form with the pET28a N-terminal His-tag not removed; used in the fluorescence titration; not shown: His-tag, N-terminal, kept
For B1, the Kd (VirB9_(XAC2620_34–255)) was about 40 nM and the “stoichiometry N” value (VirB9_(XAC2620_34–255)) was 1 VirB7:VirB9.

B2: VirB7_(XAC2622_38–52) (peptide)
peptide: NHFDEAPTEIPLYTS
notes: also called unlabeled peptide encompassing residues 38–52 from the N-terminal region; source: synthetic peptide, bought: EZBiolab
B2: binds (VirB7_(XAC2622_51–134)).
